# Assay results published in publication PMC3107886.
# Tests used:
# [1] = molecular target: soluble HLA-DR1 loaded with A2 peptide (human); assay: SEC
# [2] = molecular target: soluble gHgL (gH residue 18-679 and gL residue 24-137) (Epstein-Barr virus) (UniProt P03231); assay: SEC
# Chain of UniProt P03231 (P03231 18-679 limits assumed, chain 1 of 2): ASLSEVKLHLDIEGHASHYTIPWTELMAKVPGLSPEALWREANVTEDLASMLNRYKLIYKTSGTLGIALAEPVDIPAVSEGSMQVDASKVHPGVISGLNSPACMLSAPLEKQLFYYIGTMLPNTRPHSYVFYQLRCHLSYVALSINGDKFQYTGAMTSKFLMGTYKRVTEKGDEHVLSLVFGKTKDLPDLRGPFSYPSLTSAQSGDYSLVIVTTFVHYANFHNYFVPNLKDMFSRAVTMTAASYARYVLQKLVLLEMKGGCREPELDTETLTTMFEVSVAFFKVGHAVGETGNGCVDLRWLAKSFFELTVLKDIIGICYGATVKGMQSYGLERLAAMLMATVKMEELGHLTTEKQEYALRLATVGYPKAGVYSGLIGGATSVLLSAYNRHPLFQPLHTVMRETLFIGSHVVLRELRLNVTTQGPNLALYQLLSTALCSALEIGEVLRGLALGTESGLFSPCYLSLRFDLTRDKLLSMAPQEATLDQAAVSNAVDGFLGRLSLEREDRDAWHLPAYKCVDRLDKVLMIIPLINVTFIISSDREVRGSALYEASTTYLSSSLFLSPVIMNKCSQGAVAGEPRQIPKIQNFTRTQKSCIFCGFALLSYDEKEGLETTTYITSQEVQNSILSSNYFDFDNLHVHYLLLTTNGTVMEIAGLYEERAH
# Chain of UniProt P03231 (P03212 24-137 limits assumed, chain 2 of 2, further chain): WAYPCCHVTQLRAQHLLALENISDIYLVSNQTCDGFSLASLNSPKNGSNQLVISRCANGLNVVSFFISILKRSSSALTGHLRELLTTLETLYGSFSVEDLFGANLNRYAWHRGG
substance,measurement,setting,value
soluble gp42 (residue 33-223) (from UniProt P03205 33-223) (domain or fragment),stoichiometry N (gp42 per HLA-DR1),[1],1
same,stoichiometry N (gp42 per gHgL),[2],1
